The values that follow come from US12617827B2, “Self-assembling peptide” (NATIONAL UNIVERSITY CORPORATION TOKYO MEDICAL AND DENTAL …, priority 2020, dated 2026).

Read-outs that look alike come from different tables or passages of the source.

Data set [1] deals with RADA16 peptide, as RADA16 peptide gel. Briefly: incorporation into the peptide gel; unincorporated fraction in PBS washes measured by sandwich ELISA.
Data set [2] in a line: Rheological property of the peptide gel (rheometer, storage elastic modulus G′ and loss elastic modulus G″). The format is physicochemical. The note with it: peptide concentration 1.0% by weight. On the procedure: Among gels having a concentration of 1.0% by weight prepared in Example 1, gels formed by six types of peptide samples as examples: […] peptide (SEQ ID NO: 1), […] peptide (SEQ ID NO: 2), […] peptide (SEQ ID NO: 4), […] peptide (SEQ ID NO: 5), […] peptide (SEQ ID NO: 6), and […] peptide (SEQ ID NO: 8) were subjected to measurement of the rheological property thereof.
The rheological property was measured for 250 μL of a sample with a rheometer (Malvern Panalytical, Kinexus lab+). Specifically, the sample was sandwiched at a gap of 0.2 mm between plates, and subjected to measurement at 20° C.
The storage elastic modulus G′ and the loss elastic modulus G″ of a gel formed by each peptide are obtained by measurement of the rheological property. The storage elastic modulus G′ represents a component stored in an object, of the energy generated by an external force to the object and a strain, and the loss elastic modulus G″ represents a component externally diffused. In a case where a measurement specimen is a gel, the storage elastic modulus G′ generally exceeds the loss elastic modulus G″.

For data set [3] the following is noted: cited from earlier work.
The nature of data set [4]: Fluidity test (gel formation ability) of peptide samples. The format is physicochemical. The note with it: 1.0% by weight in D-MEM (44 mM NaHCO3, pH 7.4), 37°C, CO2 5%, 48 hours. The protocol:
A peptide powder after freeze-drying at 2.5 mg and 250 μL of D-MEM (containing 1×penicillin, 4.0 mM HEPES, 44 mM NaHCO3; pH 7.4) were added to a 1-mL microtube (glass container having an inner diameter of 5 mm and a height of 5 cm; Maruemu Corporation, Model No. 1), and ultrasound was irradiated in a water bath type ultrasonic apparatus (AS12GTU, 35 kHz, 60 W), to thereby disperse the peptide at a concentration of 1.0% by weight. Thereafter, the microtube was left to stand in a CO2 incubator (37° C., CO2 concentration 5%) for 48 hours in a state standing vertically with the bottom surface thereof facing downward. Penicillin (Life Technologies Corporation, Model No. 15140148) was used as an antibacterial agent at 100 U/mL for the purpose of prevention of mold generation, and a CO2 incubator was used for performing gelling in a condition similar to an in vivo condition.
In order to test whether the peptide sample lost fluidity and gelled, the sample was sealed in a CO2 incubator (37° C., CO2 concentration 5%) and taken out of the incubator, the microtube was rapidly flipped vertically, and a photograph of the peptide sample was taken and recorded. In a case where a portion or all of the peptide sample remained on the bottom surface side of the microtube, the peptide sample was determined to have lost fluidity and gelled. On the other hand, in a case where all of the peptide sample dropped to the cap side of the microtube, the peptide sample was determined not to have gelled.
Additional five types of peptides: […] (SEQ ID NO: 41), […] (SEQ ID NO: 42), […] (SEQ ID NO: 43), […] (SEQ ID NO: 44), and […] (SEQ ID NO: 45) were synthesized according to the same methods as in (1) to (3) of Example 1, and were subjected to gelling and fluidity test.

The subject of data set [5] is mouse fetus-derived 3T3 cells (NIH3T3 cells). Description: Evaluation of cell adhesiveness on peptide-coated chamber slide. It counts as cell-based. To be noted: 30 minutes on peptide-coated slide, compared with (RADA)4 peptide control. The protocol: A peptide sample having a concentration of 1.0% by weight was prepared by the same method as in Example 1. The peptide sample at 50 μL was dropped on a chamber slide (Merck Millipore, Millicell EZ 8-well glass) and dried under reduced pressure using a centrifugal concentrator (TAITEC CORPORATION, VC-96W), to thereby produce a chamber slide coated with the peptide. After 1.8×10^5 of mouse fetus-derived 3T3 cells (NIH3T3 cells) were suspended in 250 μL of a DMEM medium (containing 44 mM NaHCO3, Gibco, 11995-065) containing 10% serum and seeded onto the chamber slide coated with the peptide, incubation was performed in a CO2 incubator (37° C., CO2 concentration 5%) for 30 minutes. The chamber slide was washed with PBS, and cells not adhering thereto were removed. The adhering cells remaining after the washing were immobilized with 4% PFA, and then subjected to DAPI staining. The number of adhering cells was measured according to stereology as a strict quantitative determination technique which eliminates sampling biases. Specifically, nine frames of 100 μm×100 μm were created in a region of 300 μm×300 μm, and the number of cells in each of the frames was counted. The resulting number of cells was converted into the number of cells in a region of 1 mm×1 mm. In the present Example, a (RADA)4 peptide (SEQ ID NO: 19), which is known to form a cell-adhesive peptide gel, was used as a control.

A short description of data set [6]: Circular dichroism spectrum of peptide gels. The format is physicochemical. To be noted: 1.0% by weight peptide gel. An excerpt:
The “circular dichroism” refers to a phenomenon in which a difference in absorbance occurs between left-handed circularly polarized light and right-handed circularly polarized light when a protein absorbs a circularly polarized light.
Among the peptide gels having a concentration of 1.0% by weight prepared in Example 1, three types of peptides as examples: […] peptide (SEQ ID NO: 4), […] peptide (SEQ ID NO: 2), and […] peptide (SEQ ID NO: 5) were subjected to measurement of circular dichroism spectra at 20° C., 40° C., 60° C., and 80° C. and circular dichroism spectra when re-cooled from 80° C. to 20° C.
The circular dichroism spectrum was measured with a JASCO J-1100 CD Spectrometer by using an assembly cell (GL Sciences, AB20-UV-0.1, cell length 0.1 mm). The measurement range was from 190 to 400 nm, the data-obtaining interval was 0.2 nm, the scanning speed was 200 nm/min, and the specimen concentration was 1.0% by weight. When the circular dichroism spectrum was measured, the temperature was controlled with JASCO temperature regulation unit and a water-cooled Peltier cell holder PTC-514.

For “GFP-RADA16 fusion peptide (from UniProt P42212 1-238)”, the incorporation rate in data set [1] was < 70%. “RADARADARADARADA [(RADA)4, reference compound]”: the “G' (Pa)” value in data set [2] (2.2% TFA aq.) is listed as 265 Pa; in data set [3] (pH 3-4, peptide concentration 1.0% by weight), 30^*3 Pa. With RIDADMRARIR, the “G' (Pa)” value in data set [2] (DMEM (pH 7.4), 20°C) was 47,500 Pa. In addition, in data set [4], the “gelling (loss of fluidity after vertical flipping of the microtube)” value was “gelled”. Turning to RIDARMDARIR, the “cell adhesiveness (number of adhering cells)” value in data set [5] is on record as “comparable with or more than a (RADA)4 peptide”. Moreover, the “G' (Pa)” value in data set [2] (DMEM (pH 7.4), 20°C) is 58,300 Pa. For the same substance, the “circular dichroism signal (β-sheet structure)” value in data set [6] was “negative cotton effect around 220 nm”. In addition, the “gelling (loss of fluidity after vertical flipping of the microtube)” value in data set [4] was “gelled”. In the same order, the values of RIDARMRADIR are “comparable with or more than a (RADA)4 peptide”, 21,300 Pa, “negative cotton effect around 220 nm” and “gelled”. In the case of RIDARMRADMR, the “gelling (loss of fluidity after vertical flipping of the microtube)” value in data set [4] is “gelled”. The same measure, in the same setting: under RIRADIRADMR stands “gelled”; under RIRADIRGDIR, “gelled”.

On to RIRADMDARIR, for which, in data set [4], the “gelling (loss of fluidity after vertical flipping of the microtube)” value was “gelled”. Consider RIRADMRADIR, for which the “cell adhesiveness (number of adhering cells)” value in data set [5] is reported as “comparable with or more than a (RADA)4 peptide”. Further, the “G' (Pa)” value in data set [2] (DMEM (pH 7.4), 20°C) was 4,830 Pa. Also, in data set [6], the “circular dichroism signal (β-sheet structure)” value is “negative cotton effect around 220 nm”. In addition, the “gelling (loss of fluidity after vertical flipping of the microtube)” value in data set [4] is recorded as “gelled”. For RIRADMRGDIR, in data set [4], the “gelling (loss of fluidity after vertical flipping of the microtube)” value is listed as “gelled”. Consider RIRARMDADIR, for which, in data set [2] (DMEM (pH 7.4), 20°C), the “G' (Pa)” value is recorded as 6,500 Pa. In addition, the “gelling (loss of fluidity after vertical flipping of the microtube)” value in data set [4] is reported as “gelled”.

On to RIRGDIRADIR, for which, in data set [4], the “gelling (loss of fluidity after vertical flipping of the microtube)” value was “gelled”. Same read-out and setting: then RIRGDIRGDIR, with “gelled”. Same read-out and setting: then RIRGDMRADIR, with “gelled”. As to RIRGDMRGDIR, in data set [2] (DMEM (pH 7.4), 20°C), the “G' (Pa)” value is 47,800 Pa. The “gelling (loss of fluidity after vertical flipping of the microtube)” value in data set [4] is “gelled”. For “RLDLRLALRLDLR [SPG178, known peptide gelling agent]”, the “G' (Pa)” value is listed as 70^*3 Pa in data set [3] (pH 7, peptide concentration 1.0% by weight) and 300^*3 Pa in data set [3] (pH 7, peptide concentration 1.5% by weight). On to RMDADMRARIR, for which, in data set [4], the “gelling (loss of fluidity after vertical flipping of the microtube)” value is given as “gelled”.

Take RMDARIDARIR: the “gelling (loss of fluidity after vertical flipping of the microtube)” value in data set [4] is on record as “gelled”. Take RVDVDVRVRVR: the “gelling (loss of fluidity after vertical flipping of the microtube)” value in data set [4] is “did not gel”. For RVDVRVDVRVR, the “gelling (loss of fluidity after vertical flipping of the microtube)” value in data set [4] is given as “did not gel”. On the same count and under the same terms, then RVDVRVRVDVR, with “did not gel”; and RVRVDVDVRVR, with “did not gel”; and RVRVDVRVDVR, with “did not gel”. Same read-out and setting: then RVRVRVDVDVR, with “did not gel”.
